Target: equine FcRn (large alpha subunit p51) in complex with equine beta-2-microglobulin (equine) (UniProt F6XZ61)
Assay: SPR (Biacore), pH 6

Sequence of UniProt F6XZ61 (F6XZ61 entry or part of it, one chain of several): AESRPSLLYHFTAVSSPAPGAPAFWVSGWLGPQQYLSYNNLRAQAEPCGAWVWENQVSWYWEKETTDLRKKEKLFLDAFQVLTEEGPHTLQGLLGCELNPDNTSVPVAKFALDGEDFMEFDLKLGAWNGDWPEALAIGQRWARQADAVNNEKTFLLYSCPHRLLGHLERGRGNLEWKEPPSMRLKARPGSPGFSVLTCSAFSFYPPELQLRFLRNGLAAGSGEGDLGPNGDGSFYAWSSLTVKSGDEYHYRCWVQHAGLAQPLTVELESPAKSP

Kd | Binder
26.5 nM | equine IgG7 D312C mutant (antibody, part only; not given: variable domains, not shown: another chain or arm of the molecule) constant: ASTTAPKVFPLASHSAATSGSTVALGCLVSSYFPEPVTVSWNSGALTSGVHTFPSVLQSSGLYSLSSMVTVPASSLKSQTYICNVAHPASSTKVDKKIVIKECGGCPTCPECLSVGPSVFIFPPKPKDVLMISRTPTVTCVVVDVGHDFPDVQFNWYVDGVETHTATTEPKQEQNNSTYRVVSILAIQHKCWLSGKEFKCKVNNQALPAPVQKTISKPTGQPREPQVYVLAPHRDELSKNKVSVTCLVKDFYPTDIDIEWKSNGQPEPETKYSTTPAQLDSDGSYFLYSKLTVETNRWQQGTTFTCAVMHEALHNHYTEKSVSKSPGK
8.6 nM | equine IgG7 D312F mutant (antibody, part only; not given: Variable domains, not shown: another chain or arm of the molecule) constant: ASTTAPKVFPLASHSAATSGSTVALGCLVSSYFPEPVTVSWNSGALTSGVHTFPSVLQSSGLYSLSSMVTVPASSLKSQTYICNVAHPASSTKVDKKIVIKECGGCPTCPECLSVGPSVFIFPPKPKDVLMISRTPTVTCVVVDVGHDFPDVQFNWYVDGVETHTATTEPKQEQNNSTYRVVSILAIQHKFWLSGKEFKCKVNNQALPAPVQKTISKPTGQPREPQVYVLAPHRDELSKNKVSVTCLVKDFYPTDIDIEWKSNGQPEPETKYSTTPAQLDSDGSYFLYSKLTVETNRWQQGTTFTCAVMHEALHNHYTEKSVSKSPGK
15.2 nM | equine IgG7 D312I mutant (antibody, part only; not given: variable domains, not shown: another chain or arm of the molecule) constant: ASTTAPKVFPLASHSAATSGSTVALGCLVSSYFPEPVTVSWNSGALTSGVHTFPSVLQSSGLYSLSSMVTVPASSLKSQTYICNVAHPASSTKVDKKIVIKECGGCPTCPECLSVGPSVFIFPPKPKDVLMISRTPTVTCVVVDVGHDFPDVQFNWYVDGVETHTATTEPKQEQNNSTYRVVSILAIQHKIWLSGKEFKCKVNNQALPAPVQKTISKPTGQPREPQVYVLAPHRDELSKNKVSVTCLVKDFYPTDIDIEWKSNGQPEPETKYSTTPAQLDSDGSYFLYSKLTVETNRWQQGTTFTCAVMHEALHNHYTEKSVSKSPGK
10.4 nM | equine IgG7 D312H mutant (antibody, part only; not given: variable domains, not shown: another chain or arm of the molecule) constant: ASTTAPKVFPLASHSAATSGSTVALGCLVSSYFPEPVTVSWNSGALTSGVHTFPSVLQSSGLYSLSSMVTVPASSLKSQTYICNVAHPASSTKVDKKIVIKECGGCPTCPECLSVGPSVFIFPPKPKDVLMISRTPTVTCVVVDVGHDFPDVQFNWYVDGVETHTATTEPKQEQNNSTYRVVSILAIQHKHWLSGKEFKCKVNNQALPAPVQKTISKPTGQPREPQVYVLAPHRDELSKNKVSVTCLVKDFYPTDIDIEWKSNGQPEPETKYSTTPAQLDSDGSYFLYSKLTVETNRWQQGTTFTCAVMHEALHNHYTEKSVSKSPGK
42.5 nM | equine IgG7 D312E mutant (antibody, part only; not given: variable domains, not shown: another chain or arm of the molecule) constant: ASTTAPKVFPLASHSAATSGSTVALGCLVSSYFPEPVTVSWNSGALTSGVHTFPSVLQSSGLYSLSSMVTVPASSLKSQTYICNVAHPASSTKVDKKIVIKECGGCPTCPECLSVGPSVFIFPPKPKDVLMISRTPTVTCVVVDVGHDFPDVQFNWYVDGVETHTATTEPKQEQNNSTYRVVSILAIQHKEWLSGKEFKCKVNNQALPAPVQKTISKPTGQPREPQVYVLAPHRDELSKNKVSVTCLVKDFYPTDIDIEWKSNGQPEPETKYSTTPAQLDSDGSYFLYSKLTVETNRWQQGTTFTCAVMHEALHNHYTEKSVSKSPGK
38.4 nM | equine IgG7 D312G mutant (antibody, part only; not given: Variable domains, not shown: another chain or arm of the molecule) constant: ASTTAPKVFPLASHSAATSGSTVALGCLVSSYFPEPVTVSWNSGALTSGVHTFPSVLQSSGLYSLSSMVTVPASSLKSQTYICNVAHPASSTKVDKKIVIKECGGCPTCPECLSVGPSVFIFPPKPKDVLMISRTPTVTCVVVDVGHDFPDVQFNWYVDGVETHTATTEPKQEQNNSTYRVVSILAIQHKGWLSGKEFKCKVNNQALPAPVQKTISKPTGQPREPQVYVLAPHRDELSKNKVSVTCLVKDFYPTDIDIEWKSNGQPEPETKYSTTPAQLDSDGSYFLYSKLTVETNRWQQGTTFTCAVMHEALHNHYTEKSVSKSPGK

From patent US20260070987A1
